This assay has as its target T1, TRPV2-MBP (wild-type TRPV2 with an N-terminal maltose binding protein tag), Q9WUD2.
T1 chain: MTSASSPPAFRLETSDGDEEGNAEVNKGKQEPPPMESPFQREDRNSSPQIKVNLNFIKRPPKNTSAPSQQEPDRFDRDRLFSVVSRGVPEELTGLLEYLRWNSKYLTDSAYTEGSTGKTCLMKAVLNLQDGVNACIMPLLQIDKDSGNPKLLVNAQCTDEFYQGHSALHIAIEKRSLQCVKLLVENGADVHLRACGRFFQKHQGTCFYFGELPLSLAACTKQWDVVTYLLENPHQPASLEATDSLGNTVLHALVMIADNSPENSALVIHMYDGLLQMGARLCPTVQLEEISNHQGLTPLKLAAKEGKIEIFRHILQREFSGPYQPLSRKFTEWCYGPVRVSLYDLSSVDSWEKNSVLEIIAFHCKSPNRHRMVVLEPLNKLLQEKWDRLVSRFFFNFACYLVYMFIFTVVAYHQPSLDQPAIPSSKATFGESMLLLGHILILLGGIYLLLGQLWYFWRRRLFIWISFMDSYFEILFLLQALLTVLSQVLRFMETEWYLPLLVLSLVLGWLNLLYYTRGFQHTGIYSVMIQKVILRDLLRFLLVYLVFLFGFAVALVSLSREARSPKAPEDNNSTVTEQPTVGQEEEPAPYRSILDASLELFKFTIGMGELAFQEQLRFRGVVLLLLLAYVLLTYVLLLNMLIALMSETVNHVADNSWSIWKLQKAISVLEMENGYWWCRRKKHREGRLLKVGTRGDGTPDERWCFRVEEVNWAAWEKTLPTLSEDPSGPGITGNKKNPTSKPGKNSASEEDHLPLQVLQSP
The assay is described as follows: SEC. The conditions noted are these: remark: other sources report otherwise.

B1: TRPV2-MBP (wild-type TRPV2 with an N-terminal maltose binding protein tag), Q9WUD2 1-761 (natural protein)
chain: T1 chain
Broadly, the stoichiometry N is the number of molecules, sites or subunits per partner or assembly. In turn, B1 came in with a stoichiometry N of 4.

Values taken from PMC11580892.
